The values below come from paper PMC8324488 (Cell Reports Medicine, 2021).

The test concerns the target EBV glycoprotein gp350 (Epstein-Barr virus (strain B95-8) …, UniProt P03200-1). The test is described as follows: flow cytometry on cells.

Sequence of EBV glycoprotein gp350 (P03200 whole entry): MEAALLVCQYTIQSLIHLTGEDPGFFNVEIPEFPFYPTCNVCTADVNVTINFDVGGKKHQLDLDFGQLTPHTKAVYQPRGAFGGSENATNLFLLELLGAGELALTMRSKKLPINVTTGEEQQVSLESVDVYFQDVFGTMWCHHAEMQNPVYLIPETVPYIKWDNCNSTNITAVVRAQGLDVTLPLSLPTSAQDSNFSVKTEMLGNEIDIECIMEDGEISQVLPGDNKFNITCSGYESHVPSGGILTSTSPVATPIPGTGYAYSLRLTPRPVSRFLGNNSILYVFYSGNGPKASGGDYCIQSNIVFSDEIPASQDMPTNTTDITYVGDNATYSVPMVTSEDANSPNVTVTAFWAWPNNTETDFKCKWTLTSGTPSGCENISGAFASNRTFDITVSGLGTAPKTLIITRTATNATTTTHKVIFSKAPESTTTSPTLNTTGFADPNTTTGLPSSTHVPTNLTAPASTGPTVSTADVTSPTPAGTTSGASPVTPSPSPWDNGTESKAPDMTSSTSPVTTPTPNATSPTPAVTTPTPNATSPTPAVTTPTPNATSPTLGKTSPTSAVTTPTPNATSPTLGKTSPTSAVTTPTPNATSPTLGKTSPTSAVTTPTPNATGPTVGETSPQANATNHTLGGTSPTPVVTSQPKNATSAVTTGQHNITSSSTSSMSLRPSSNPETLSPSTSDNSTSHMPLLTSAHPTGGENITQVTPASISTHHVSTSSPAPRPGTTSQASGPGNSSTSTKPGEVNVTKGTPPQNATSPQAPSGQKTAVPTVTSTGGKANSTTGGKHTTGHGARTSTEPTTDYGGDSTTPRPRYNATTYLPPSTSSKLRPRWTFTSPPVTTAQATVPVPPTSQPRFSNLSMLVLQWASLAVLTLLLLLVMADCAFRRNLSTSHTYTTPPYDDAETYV

B1: 72A1, original hybridoma antibody (antibody, V domains shown)
VH: EVQLQQSGPELVKPGTSMKISCKASGSSFTDYTMNWMKQSHGKNLEWIGLINPYNGGTRYNQKFKGKATLTLDKSSSTAYMEVLSLTSEDSAVYYCAGGLRRVNWFAYWGQGTLVSVSA
VL: QAVLTQESALTTSPGETVTLTCRSSTGAVTTSNYANWVQEKPDHLFTGLIGGTNNRVPGVPARFSGSLIGDKAALTITGAQTEDEAIYFCVLWHSNHWVFGGGTKLTVL
As to B1, the binding result is “binds”.
